According to the supplement of paper PMC9170038:

Tested on: MS2 coat protein
Test: apparent KD of MS2 coat protein; designed switch direction (-1 OFF switch, 1 ON switch): -1; higher = weaker reporter binding
Method in brief: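 Transcription of designed RNA switches on Illumina chips was done by stalled E. coli RNA polymerase. SNAP-549-labelled MS2 coat protein was then titrated in doubling steps from 0.7 or 1.5 nM to 3 µM, with steps of 0.8–1.5 h at the lowest and 10–20 min at the highest concentration. The per-design median over clusters of curve-fitted normalised fluorescence is reported as apparent KD.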

[1] = Eterna round: R95, input ligand: FMN 200 uM
[2] = Eterna round: R95, input ligand: microRNA oligo, concentration not stated
[3] = Eterna round: R95, input ligand: none
[4] = input ligand: microRNA oligo, concentration not stated

Sequence: AGGGAGCGAGGAUAUACAGAGUAGGAAACCACUCCCUCAGUACAUGAGGAUCACCCAUGUAGAAGGCGCCCGAA [EX2 A.8] (Eterna round: R97, puzzle: Exclusion 2)
- apparent KD of MS2 coat protein (input ligand: FMN 200 uM): 39.2 nM
- apparent KD of MS2 coat protein (input ligand: none): 31.5 nM

Sequence: AGGGAGUCAGGAUAUUAUUUUUAGCGGGAUAACGCUGAGGGUGAGAAGGGACAUGAGGAUCACCCAUGUUUUGA [JR_Ex4_Sub075] (Eterna round: R97, puzzle: Exclusion 4)
- apparent KD of MS2 coat protein (input ligand: FMN 200 uM): 167 nM
- apparent KD of MS2 coat protein (input ligand: none): 183 nM

Sequence: AGGGAUAAAGGAUAUACAUGAGGAUCACCCAUGUUGAGGAAAGUGAGAUGAGGAGGAAGUAGAAGGUUAGGCGG [JR_Exclu3_Sub084] (puzzle: Exclusion 3)
- apparent KD of MS2 coat protein [1]: 35.7 nM
- apparent KD of MS2 coat protein [2]: 33.9 nM
- apparent KD of MS2 coat protein [3]: 31.4 nM

Sequence: AGGUCCUUCUGGAGACAUGAGGAUCACCCAUGUCGGGUCAGCGAGGAUAUCGGUCAAUAAUGUGACGAGAAGGCGCGGACCGAU [Ex NG3 #57] (Eterna round: R96, puzzle: Exclusion NG 3)
- apparent KD of MS2 coat protein (input ligand: FMN 200 uM): 55.5 nM
- apparent KD of MS2 coat protein [4]: 17.1 nM
- apparent KD of MS2 coat protein (input ligand: none): 19.9 nM

Sequence: AGGUGCUUCUGGAGACAUGAGGAUCACCCAUGUCGAGUUAGCGAGGAUAUCGGUAAGGCAUGUGAUGAGAAGGCGCAAACCGAU [Ex NG3 #50] (Eterna round: R96, puzzle: Exclusion NG 3)
- apparent KD of MS2 coat protein (input ligand: FMN 200 uM): 22.8 nM
- apparent KD of MS2 coat protein [4]: 12.7 nM
- apparent KD of MS2 coat protein (input ligand: none): 24.3 nM

Sequence: AGGUGUAGAGGAUAUCGAAUCCUUUACAUGAGGAUCACCCAUGUCCUGGGCACCCAGGACCGAGAAGGCUACACCA [Omei Ex5 D33] (Eterna round: R97, puzzle: Exclusion 5)
- apparent KD of MS2 coat protein (input ligand: FMN 200 uM): 40.2 nM
- apparent KD of MS2 coat protein (input ligand: none): 2350 nM

Sequence: AGGUUGUGAGGAUAUUAGUUAUAUGAUUGGAGGAGUAUGGCUGAGAAGGCACAUGAGGAUCACCCAUGUAGAUC [JR_Ex4_Sub048] (Eterna round: R97, puzzle: Exclusion 4)
- apparent KD of MS2 coat protein (input ligand: FMN 200 uM): 555 nM
- apparent KD of MS2 coat protein (input ligand: none): 162 nM

Sequence: AGUAACAGAGGAUAUACUGUUUUAUGUGUUUAUUGUUUUAAACAUGAGGAUCACCCAUGUAGAAGGCUGAAUAA [JMF 85] (puzzle: Exclusion 2)
- apparent KD of MS2 coat protein [2]: 25.5 nM

Sequence: AGUAACAGAGGAUAUACUGUUUUAUGUGUUUGUUAUUUUAAACAUGAGGAUCACCCAUGUAGAAGGCUGAAUAA [JMF 83] (puzzle: Exclusion 2)
- apparent KD of MS2 coat protein [2]: 21.4 nM

Sequence: AGUAACCGUCACGAAAGUGAUGGUUACACAAGCAAUGAAACAUGAGGAUCACCCAUGUCCUCAUUUGCUCGUCUUAU [Sensor 3 - 40] (puzzle: Sensor v3, turn-off variant 2)
- apparent KD of MS2 coat protein [1]: 25.5 nM
- apparent KD of MS2 coat protein [2]: 486 nM
- apparent KD of MS2 coat protein [3]: 26.8 nM

Sequence: AGUACUAACACGAAAGUGUUAGUACAAUAAGCUAGUGGAACAUGAGGAUCACCCAUGUCCUCAUUAGCUCGUCUUAG [Mat - Sensor v3 - Turn-off var 2 - D35] (puzzle: Sensor v3, turn-off variant 2)
- apparent KD of MS2 coat protein [1]: 15.4 nM
- apparent KD of MS2 coat protein [2]: 39.7 nM
- apparent KD of MS2 coat protein [3]: 15.1 nM

Sequence: AGUACUAACACGAAAGUGUUAGUACAAUAAGCUUGUGAAACAUGAGGAUCACCCAUGUCCUCAUAAGCUCGUCUUAU [Mat - Sensor v2 -ver2- JL mod - D68] (Eterna round: R96, puzzle: Sensor v2, turn-off variant 2)
- apparent KD of MS2 coat protein (input ligand: FMN 200 uM): 15.4 nM
- apparent KD of MS2 coat protein [4]: 468 nM
- apparent KD of MS2 coat protein (input ligand: none): 17.6 nM

Sequence: AGUACUAACACGAAAGUGUUAGUACAAUAAGCUUGUGAAACAUGAGGAUCACCCAUGUCCUCAUAAGCUCGUCUUAU [salish99_TOv2_r3_001again] (puzzle: Sensor v3, turn-off variant 2)
- apparent KD of MS2 coat protein [1]: 16.7 nM
- apparent KD of MS2 coat protein [2]: 648 nM
- apparent KD of MS2 coat protein [3]: 15.9 nM

Sequence: AGUACUAGCACGAAAGUGUUAGUACAAUAAGCUUGUGAAACAUGAGGAUCACCCAUGUCCUCAUAAGCUCGUCUUAU [salish99_TOv2_r3_020] (puzzle: Sensor v3, turn-off variant 2)
- apparent KD of MS2 coat protein [1]: 18.2 nM
- apparent KD of MS2 coat protein [2]: 429 nM
- apparent KD of MS2 coat protein [3]: 16 nM

Sequence: AGUACUAUGCGAGCUGACUUGCGUAGUGCAGCAGGUGUAACAUGAGGAUCACCCAUGUCCUCAUUUGCUCGUCUUAU [Mat - Sensor v3 - Turn-off var 2 - D8] (puzzle: Sensor v3, turn-off variant 2)
- apparent KD of MS2 coat protein [1]: 250 nM
- apparent KD of MS2 coat protein [2]: 326 nM
- apparent KD of MS2 coat protein [3]: 248 nM

Sequence: AGUAGAUCUACGCUUGCGUGGAUCUGCAAUGCAGGUGUUACAUGAGGAUCACCCAUGUCCUCAUUUGUUCGUCUUAG [JL turnoff v2 99.09] (puzzle: Sensor v3, turn-off variant 2)
- apparent KD of MS2 coat protein [1]: 568 nM
- apparent KD of MS2 coat protein [2]: 322 nM
- apparent KD of MS2 coat protein [3]: 395 nM

Sequence: AGUAGAUCUACGCUUGCGUGGAUCUGCUAGGCAGGUGUAACAUGAGGAUCACCCAUGUCCUCAUUUGUUCGUCUUAU [JL turnoff v2 99.18] (puzzle: Sensor v3, turn-off variant 2)
- apparent KD of MS2 coat protein [1]: 85.4 nM
- apparent KD of MS2 coat protein [2]: 313 nM
- apparent KD of MS2 coat protein [3]: 28.3 nM

Sequence: AGUAGGUCUACCUUGGUGGAUCUGCAUUUAGGCAGGUGUACAUGAGGAUCACCCAUGUCCUCAUUUGCUCGUCUUAU [JL turnoff v2 99.29] (puzzle: Sensor v3, turn-off variant 2)
- apparent KD of MS2 coat protein [1]: 807 nM
- apparent KD of MS2 coat protein [2]: 488 nM
- apparent KD of MS2 coat protein [3]: 952 nM

Sequence: AGUAGUUACGUAGGAUAUGAGGAUCACCCAUAGAAGGAUAUCGAAAGAGAAGGUCUGAGGAUUACCCAGAAGGACGUGACUACA [pwkr exNG2 2xF5 2xFMN.9] (Eterna round: R96, puzzle: Exclusion NG 2)
- apparent KD of MS2 coat protein (input ligand: FMN 200 uM): 334 nM
- apparent KD of MS2 coat protein [4]: 113 nM
- apparent KD of MS2 coat protein (input ligand: none): 138 nM

Sequence: AGUAUAAUGUACGUGCACCACUUACAUGAGGAUCACCCAUGUUAGGAUAUCGAGCCUUUCUGGCUCGAGAAGGGACUCUUCGGG [Eternabot solution 18] (Eterna round: R96, puzzle: Exclusion NG 3)
- apparent KD of MS2 coat protein (input ligand: FMN 200 uM): 33.2 nM
- apparent KD of MS2 coat protein [4]: 22.9 nM
- apparent KD of MS2 coat protein (input ligand: none): 29.1 nM

Sequence: AGUAUCUGAGGAUAUUGAGUUAUCUACAUGAGGAUCACCCAUGUUGUAUGUGUAGAAGCACGAGAAGGCAGAUACA [Eternabot (L2) Solution 1] (Eterna round: R97, puzzle: Exclusion 5)
- apparent KD of MS2 coat protein (input ligand: FMN 200 uM): 395 nM
- apparent KD of MS2 coat protein (input ligand: none): 102 nM

Sequence: AGUCAGGCGGUAGGAUAUCCAAACCGAGUGACCCUUUCAUAACAUGAGGAUCACCCAUGUCGGUGGGAGAAGGGCCGUACGGCA [Mat - Exclusion NG 2 - Mod of JL - D65] (Eterna round: R96, puzzle: Exclusion NG 2)
- apparent KD of MS2 coat protein (input ligand: FMN 200 uM): 410 nM
- apparent KD of MS2 coat protein [4]: 173 nM
- apparent KD of MS2 coat protein (input ligand: none): 159 nM

Sequence: AGUCAGGCGGUAGGAUAUCCAUAUCGAGUGACCCUUUCAUAACAUGAGGAUCACCCAUGUCGGUGGGAGAAGGGCCGUAAGGCA [Mat - Exclusion NG 2 - Mod of JL - D69] (Eterna round: R96, puzzle: Exclusion NG 2)
- apparent KD of MS2 coat protein (input ligand: FMN 200 uM): 53.6 nM
- apparent KD of MS2 coat protein [4]: 30.5 nM
- apparent KD of MS2 coat protein (input ligand: none): 41.1 nM

Sequence: AGUCCAUAUGUUAGGAUAUGCAACUAGCCAUUGUAGCAGAAGGAACAUGAGGAUCACCCAUGUACAAAGACCCG [Biinvees] (puzzle: Brourd's mod of Exclusion 4)
- apparent KD of MS2 coat protein [1]: 33.6 nM
- apparent KD of MS2 coat protein [2]: 23.6 nM
- apparent KD of MS2 coat protein [3]: 18.2 nM

Sequence: AGUCCUGAAGUUAGGAUAUGAAGUAUCACUGCACUUCAGAAGGGACUUGAGGAUCACCCAAGUAGCCGUGAGGG [salish99_bmod_ex4_r4_002] (Eterna round: R97, puzzle: Brourd's mod of Exclusion 4)
- apparent KD of MS2 coat protein (input ligand: FMN 200 uM): 128 nM
- apparent KD of MS2 coat protein (input ligand: none): 70.6 nM

Sequence: AGUCGGUCAGGAUAUGCAAUCGUGGACAUGAGGAUCACCCAUGUAACGUGGGCCUGGUUUGUAGAAGGGACGUGCA [EX5 #88] (Eterna round: R97, puzzle: Exclusion 5)
- apparent KD of MS2 coat protein (input ligand: FMN 200 uM): 63.2 nM
- apparent KD of MS2 coat protein (input ligand: none): 55.2 nM

Sequence: AGUCUGCGAGGAUAUACAUGAGGAUCACCCAUGUGCGAGAUACUAGUGAGGUCGAUUGGUAGAAGGCGCGGACG [Mat - Exclusion 3 - Mod of JL D85] (puzzle: Exclusion 3)
- apparent KD of MS2 coat protein [1]: 86.4 nM
- apparent KD of MS2 coat protein [2]: 93.1 nM
- apparent KD of MS2 coat protein [3]: 67 nM

Sequence: AGUGUGGGAGGAUAUACAUGAGGAUCACCCAUGUGAGUUGGCUCACAUGCUACGCUUCGUAGAAGGCCCAAAGA [Reragebion] (Eterna round: R96, puzzle: Exclusion 3)
- apparent KD of MS2 coat protein (input ligand: FMN 200 uM): 554 nM
- apparent KD of MS2 coat protein [4]: 86.2 nM
- apparent KD of MS2 coat protein (input ligand: none): 91.3 nM

Sequence: AGUUGGCGAGGAUAUACAUGAGGAUCACCCAUGUGAAAUAGAAUAGUGAGGAAGAAAAGUAGAAGGCGCUGACA [Mat - Exclusion 3 - Mod of Salish D41] (puzzle: Exclusion 3)
- apparent KD of MS2 coat protein [2]: 49.7 nM

Sequence: AGUUGGCGAGGAUAUACAUGAGGAUCACCCAUGUGAAGAAGAAUAGUGAGGAAGAAAAGUAGAAGGCGCUGACA [Mat - Exclusion 3 - Mod of Salish D37] (Eterna round: R96, puzzle: Exclusion 3)
- apparent KD of MS2 coat protein (input ligand: FMN 200 uM): 412 nM
- apparent KD of MS2 coat protein [4]: 33.6 nM
- apparent KD of MS2 coat protein (input ligand: none): 48.5 nM

Sequence: AGUUGGCGAGGAUAUACAUGAGGAUCACCCAUGUGAAGAAGAAUAGUGAGGAAGAAAAGUAGAAGGCGCUGACA [Mat - Exclusion 3 - Mod of Salish D37] (puzzle: Exclusion 3)
- apparent KD of MS2 coat protein [2]: 36.6 nM

Sequence: AGUUGGCGAGGAUAUACAUGAGGAUCACCCAUGUGAGAGAAAAAAGUGAGGAAGAAAAGUAGAAGGCGCUGACU [salish99_ex3_r3_039] (puzzle: Exclusion 3)
- apparent KD of MS2 coat protein [1]: 313 nM
- apparent KD of MS2 coat protein [2]: 46.3 nM
- apparent KD of MS2 coat protein [3]: 60.4 nM
